Data from patent publication US20220064312A1 (SHIONOGI, published 2022).
Where two headings read alike, the source gives them in different places. Blank lines part the entries; values can stand above or below the binder they belong to.

Columns and labels:
human CCR8 [1] = molecular target: T1, human CCR8 (human, UniProt P51685 1-355); assay: cell-based or functional assay
hCCR8 (N188A) = hCCR8 (N188A) (human, UniProt P51685 1-355); assay: flow cytometry, transfected Expi293 cells
Description: (§1) In addition to the chimeras of human CCR4 and the point mutants at the N-terminal region of human CCR8 produced in Example 3, binding evaluation was also performed for point mutants at loop1 and loop2 regions of human CCR8. […] After reacting at room temperature for 3 hours, it was reacted with Alexa488-labeled Anti-human IgG antibody (Thermo Fisher Scientific) and flow cytometry analysis was performed.
(§2) In comparison to human CCR8, a mutant having binding activity of 70% or less was indicated as Δ and a mutant having binding activity of 20% or less was indicated as x.

hCCR8 (L181A) = hCCR8 (L181A) (human, UniProt P51685 1-355); assay: flow cytometry, transfected Expi293 cells
Description: as §1, §2

hCCR8 (K193A) = hCCR8 (K193A) (human, UniProt P51685 1-355); assay: flow cytometry, transfected Expi293 cells
Description: as §1, §2

hCCR8 (S22A) = hCCR8 (S22A) (human, UniProt P51685 1-355); assay: flow cytometry, transfected Expi293 cells
Description: as §1, §2

loop3 hCCR4-hCCR8 = molecular target: T2, loop3 hCCR4-hCCR8 (human, UniProt P51685 1-355); assay: flow cytometry, transfected Expi293 cells
T2 construct: chimera on Expi293 cells; hCCR8 ranges derived
Description: as §1, §2

hCCR8 (L29A) = hCCR8 (L29A) (human, UniProt P51685 1-355); assay: flow cytometry, transfected Expi293 cells
Description: as §1, §2

loop1 hCCR4-hCCR8 [2] = molecular target: T3, loop1 hCCR4-hCCR8 (human, UniProt P51685 1-355); assay: flow cytometry, transfected Expi293 cells
T3 construct: chimera on Expi293 cells; hCCR8 ranges derived; also called loop 1-human CCR4-substituted human CCR8
Description: as §1, §2

hCCR8 (T11A) = hCCR8 (T11A) (human, UniProt P51685 1-355); assay: flow cytometry, transfected Expi293 cells
Description: as §1, §2

hCCR8 (S23A) = hCCR8 (S23A) (human, UniProt P51685 1-355); assay: flow cytometry, transfected Expi293 cells
Description: as §1, §2

hCCR8 (T10A) = hCCR8 (T10A) (human, UniProt P51685 1-355); assay: flow cytometry, transfected Expi293 cells
Description: as §1, §2

hCCR8 (T13A) = hCCR8 (T13A) (human, UniProt P51685 1-355); assay: flow cytometry, transfected Expi293 cells
Description: as §1, §2

loop2 hCCR4-hCCR8 [3] = molecular target: T4, loop2 hCCR4-hCCR8 (human, UniProt P51685 1-355); assay: flow cytometry, transfected Expi293 cells
T4 construct: chimera on Expi293 cells; hCCR8 ranges derived; also called loop2-human CCR4-substituted human CCR8
Description: as §1, §2

hCCR8 (Y15A) = hCCR8 (Y15A) (human, UniProt P51685 1-355); assay: flow cytometry, transfected Expi293 cells
Description: as §1, §2

hCCR8 (I20A) = molecular target: T5, hCCR8 (I20A) (human, UniProt P51685 1-355); assay: flow cytometry, transfected Expi293 cells
T5 construct: also called hCCR8 (120A)
Description: as §1, §2

hCCR8 (K35A) = hCCR8 (K35A) (human, UniProt P51685 1-355); assay: flow cytometry, transfected Expi293 cells
Description: as §1, §2

hCCR8 (L5A) = molecular target: T6, hCCR8 (L5A) (human, UniProt P51685 1-355); assay: flow cytometry, transfected Expi293 cells
T6 construct: also called hCCR8 (LSA)
Description: as §1, §2

N-ter hCCR4-hCCR8 = molecular target: T7, N-ter hCCR4-hCCR8 (human); assay: flow cytometry, transfected Expi293 cells
T7 construct: chimera on Expi293 cells; remaining hCCR8 ranges derived from the stated swapped ranges and the 355-residue length; also called N-terminal region human CCR4-substituted human CCR8
T7 chain: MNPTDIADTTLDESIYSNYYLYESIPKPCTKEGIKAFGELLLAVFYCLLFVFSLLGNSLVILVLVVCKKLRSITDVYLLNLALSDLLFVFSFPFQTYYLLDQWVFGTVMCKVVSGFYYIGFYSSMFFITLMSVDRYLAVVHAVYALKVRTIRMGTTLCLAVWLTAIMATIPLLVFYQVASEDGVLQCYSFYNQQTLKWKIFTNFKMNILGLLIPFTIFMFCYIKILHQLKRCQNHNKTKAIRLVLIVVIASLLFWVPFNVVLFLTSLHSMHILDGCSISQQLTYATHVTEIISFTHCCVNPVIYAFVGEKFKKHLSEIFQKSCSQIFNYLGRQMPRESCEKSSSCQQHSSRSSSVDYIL

mouse CCR8 = molecular target: T8, mouse CCR8 (mouse, UniProt P56484 1-353); assay: flow cytometry, transfected Expi293 cells
T8 construct: also called mCCR8
T8 sequence: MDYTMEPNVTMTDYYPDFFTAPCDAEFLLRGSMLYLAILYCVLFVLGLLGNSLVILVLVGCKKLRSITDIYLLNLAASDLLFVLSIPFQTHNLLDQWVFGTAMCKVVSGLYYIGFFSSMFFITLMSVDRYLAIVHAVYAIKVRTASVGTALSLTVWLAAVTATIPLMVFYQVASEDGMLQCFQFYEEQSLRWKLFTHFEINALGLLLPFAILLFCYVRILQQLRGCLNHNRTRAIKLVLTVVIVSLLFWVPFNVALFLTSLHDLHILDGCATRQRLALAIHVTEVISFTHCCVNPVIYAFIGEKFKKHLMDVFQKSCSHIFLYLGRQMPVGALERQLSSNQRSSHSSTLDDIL

loop1 hCCR4-hCCR8 [4] = molecular target: T3, loop1 hCCR4-hCCR8; assay: flow cytometry, transfected Expi293 cells; remark: listed apart in the source
hCCR8 (Y17A) = hCCR8 (Y17A) (human, UniProt P51685 1-355); assay: flow cytometry, transfected Expi293 cells
hCCR8 (Y17A), sequence (P51685 whole entry Y17A): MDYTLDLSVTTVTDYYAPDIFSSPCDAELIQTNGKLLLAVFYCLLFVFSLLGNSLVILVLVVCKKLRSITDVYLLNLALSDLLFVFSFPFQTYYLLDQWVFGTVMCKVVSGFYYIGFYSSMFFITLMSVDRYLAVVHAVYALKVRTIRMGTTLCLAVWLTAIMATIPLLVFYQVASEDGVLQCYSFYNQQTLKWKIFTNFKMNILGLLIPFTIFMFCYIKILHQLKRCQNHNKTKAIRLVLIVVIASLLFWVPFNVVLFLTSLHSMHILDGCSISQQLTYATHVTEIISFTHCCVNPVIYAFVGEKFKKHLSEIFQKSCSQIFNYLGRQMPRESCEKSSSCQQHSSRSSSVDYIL

human CCR4 = molecular target: T9, human CCR4 (human, UniProt P51679 1-360); assay: flow cytometry, transfected Expi293 cells
T9 construct: also called hCCR4
T9 sequence: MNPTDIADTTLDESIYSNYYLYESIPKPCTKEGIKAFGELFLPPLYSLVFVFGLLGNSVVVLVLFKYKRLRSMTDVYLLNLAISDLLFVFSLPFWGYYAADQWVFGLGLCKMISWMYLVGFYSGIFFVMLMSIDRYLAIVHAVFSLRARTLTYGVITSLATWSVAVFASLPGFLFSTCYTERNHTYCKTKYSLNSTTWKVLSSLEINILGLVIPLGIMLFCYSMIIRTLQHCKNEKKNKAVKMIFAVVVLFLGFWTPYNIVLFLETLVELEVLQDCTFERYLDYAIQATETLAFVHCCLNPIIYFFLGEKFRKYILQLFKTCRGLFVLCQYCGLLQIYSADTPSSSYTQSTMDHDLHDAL

human CCR8 [5] = molecular target: T1, human CCR8; assay: cell-based or functional assay; remark: listed apart in the source
loop2 hCCR4-hCCR8 [6] = molecular target: T4, loop2 hCCR4-hCCR8; assay: flow cytometry, transfected Expi293 cells; Δ = significantly reduced vs hCCR8
human CCR8 [7] = molecular target: T1, human CCR8; assay: cell-based or functional assay; remark: listed apart in the source

T1 sequence (P51685 whole entry): as the sequence (P51685 whole entry Y17A) above, with A17Y counted along it

IC50 (nM), Ca2+ influx by 200 nM hCCL1 (human CCR8 [1]): 0.46 nM
B1: h19D7 (IGKV2-18/IGHV3-73) (antibody, V domains shown)
VH: EVQLVESGGGLVQPGGSLKLSCAASGFTFSTYAMYWVRQASGKGLEWVGRIRSKSNNYATYYADSVKDRFTISRDDSKNTAYLQMNSLKTEDTAVYYCTRGGYGNYRYAMDYWGQGTTVTVSS
VL: DIVMTQTPPSLPVNPGEPASISCRSSKSLLHSNGNTYLYWYLQKPGQSPQLLIYRVSNLASGVPDRFSGSGSGSDFTLKISWVEAEDVGVYYCMQHLEYPFTFGQGTKLEIK

binding activity in comparison to human CCR8 (hCCR8 (N188A)): ≤ 70%
binding activity in comparison to human CCR8 (hCCR8 (L181A)): ≤ 70%
binding activity in comparison to human CCR8 (hCCR8 (K193A)): ≤ 70%
binding activity in comparison to human CCR8 (hCCR8 (S22A)): ≤ 70%
binding activity in comparison to human CCR8 (loop3 hCCR4-hCCR8): ≤ 70%
binding activity in comparison to human CCR8 (hCCR8 (L29A)): ≤ 70%
binding activity in comparison to human CCR8 (loop1 hCCR4-hCCR8 [2]): ≤ 70%
binding activity in comparison to human CCR8 (hCCR8 (T11A)): ≤ 70%
binding activity in comparison to human CCR8 (hCCR8 (S23A)): ≤ 70%
binding activity in comparison to human CCR8 (hCCR8 (T10A)): ≤ 70%
binding activity in comparison to human CCR8 (hCCR8 (T13A)): ≤ 70%
binding activity in comparison to human CCR8 (loop2 hCCR4-hCCR8 [3]): ≤ 70%
binding activity in comparison to human CCR8 (hCCR8 (Y15A)): ≤ 70%
binding activity in comparison to human CCR8 (hCCR8 (I20A)): ≤ 70%
binding activity in comparison to human CCR8 (hCCR8 (K35A)): ≤ 70%
binding activity in comparison to human CCR8 (hCCR8 (L5A)): ≤ 70%
B2: h19D7 (IGKV3-20/IGHV3-15 T94R) (antibody, V domains shown)
VH: EVQLVESGGALVKPGGSLRLSCAASGFTFSTYAMYWVRQAPGKGLEWVGRIRSKSNNYATYYADSVKDRFTISRDDSKNTLYLQMNSLKTEDTAVYYCTRGGYGNYRYAMDYWGQGTTVTVSS
VL: EIVLTQSPGTLSLSPGERATLSCRSSKSLLHSNGNTYLYWYQQKPGQAPRLLIYRVSNLASGIPDRFSGSGSGTDFTLTISRLEPEDFAVYYCMQHLEYPFTFGQGTKLEIK
notes: humanized; detected with anti-human IgG

binding result (N-ter hCCR4-hCCR8): no binding
binding result (mouse CCR8): no binding
binding result (loop1 hCCR4-hCCR8 [4]): no binding
binding result (hCCR8 (Y17A)): no binding
binding result (human CCR4): no binding
Neutralizing Activity IC50 (nM), Ca2+ influx by 100 nM hCCL1 (human CCR8 [5]): 1.56 nM
binding result (loop2 hCCR4-hCCR8 [6]): binds
IC50 (nM), Ca2+ influx by 200 nM hCCL1 (human CCR8 [7]): 3.03 nM
B3: 8F7 (antibody, V domains shown)
VH: EVQLVESGGRLVQPKRSLKLSCAASGFTFNPYAMYWIRQAPGQGLEWVARIRSKSNNYATYYADSVKDRFTISRDDSQSMLYLQMNNLKTEDTAMYYCVRGHQGTMDYWGQGTSVTVSS
VL: DIVMTQAAPSVPVTPGESVSISCRSSKSLLHSNGNTYLYWFLQRPGQSPQLLTYRMSNLASGVPDRFSGSGSGTAFTLRISRVEAEDVGVYYCMQHLEYPFTFGGGTKLEIKR
notes: mouse hybridoma antibody
